Test results published in article PMC2756588.

T1: Sla1-2, P32790
T1 sequence (P32790 60-140, looked up): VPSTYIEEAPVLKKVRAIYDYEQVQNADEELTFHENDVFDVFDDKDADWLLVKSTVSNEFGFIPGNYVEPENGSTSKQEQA

T2: Bzz1-1, P38822
T2 sequence (P38822 478-572, looked up): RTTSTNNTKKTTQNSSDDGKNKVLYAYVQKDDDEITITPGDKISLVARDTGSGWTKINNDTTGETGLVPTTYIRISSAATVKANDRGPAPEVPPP

T3: Pex13, P80667
T3 sequence (P80667 295-386, looked up): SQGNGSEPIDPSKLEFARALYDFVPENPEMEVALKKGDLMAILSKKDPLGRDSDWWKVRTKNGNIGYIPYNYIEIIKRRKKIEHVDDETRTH

T4: Bbc1, P47068
T4 sequence (P47068 1-78, looked up): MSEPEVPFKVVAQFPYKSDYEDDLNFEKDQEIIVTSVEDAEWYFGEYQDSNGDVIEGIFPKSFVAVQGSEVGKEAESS

T5: Myo5, Q04439
T5 sequence (Q04439 1072-1160, looked up): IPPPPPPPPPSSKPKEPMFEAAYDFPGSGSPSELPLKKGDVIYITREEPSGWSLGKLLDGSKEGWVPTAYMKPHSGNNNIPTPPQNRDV

T6: Cyk3, Q07533
T6 sequence (Q07533 1-83, looked up): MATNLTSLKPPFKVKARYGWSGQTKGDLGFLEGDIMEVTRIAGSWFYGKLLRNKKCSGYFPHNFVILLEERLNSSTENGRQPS

T7: Sla1-3, P32790
T7 sequence (P32790 344-424, looked up): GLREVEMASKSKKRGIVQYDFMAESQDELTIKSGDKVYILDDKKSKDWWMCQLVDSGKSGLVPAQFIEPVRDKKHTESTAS

T8: Abp1, P15891
T8 sequence (P15891 535-592, looked up): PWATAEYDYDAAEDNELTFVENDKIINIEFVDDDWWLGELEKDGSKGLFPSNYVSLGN

T9: Bud14, P27637
T9 sequence (P27637 247-328, looked up): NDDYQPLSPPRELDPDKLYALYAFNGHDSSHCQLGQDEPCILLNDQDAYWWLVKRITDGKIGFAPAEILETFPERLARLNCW

T10: Nbp2, Q12163
T10 sequence (Q12163 103-180, looked up): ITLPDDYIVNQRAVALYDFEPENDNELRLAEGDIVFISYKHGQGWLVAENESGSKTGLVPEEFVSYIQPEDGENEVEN

T11: Lsb4, P32793
T11 sequence (P32793 402-468, looked up): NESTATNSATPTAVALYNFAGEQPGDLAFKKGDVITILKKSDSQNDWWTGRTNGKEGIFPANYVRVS

T12: Lsb3, P43603
T12 sequence (P43603 385-451, looked up): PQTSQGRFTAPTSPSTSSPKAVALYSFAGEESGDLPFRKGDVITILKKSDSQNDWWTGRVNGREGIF

T13: Boi1, P38041
T13 sequence (P38041 1-86, looked up): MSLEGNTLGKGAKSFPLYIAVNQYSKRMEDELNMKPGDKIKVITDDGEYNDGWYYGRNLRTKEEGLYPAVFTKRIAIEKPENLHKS

T14: Cdc25, P04821
T14 sequence (P04821 50-136, looked up): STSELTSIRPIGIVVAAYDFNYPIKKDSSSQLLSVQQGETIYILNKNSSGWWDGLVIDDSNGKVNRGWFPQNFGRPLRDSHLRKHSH

T15: Hof1, Q05080
T15 sequence (Q05080 590-669, looked up): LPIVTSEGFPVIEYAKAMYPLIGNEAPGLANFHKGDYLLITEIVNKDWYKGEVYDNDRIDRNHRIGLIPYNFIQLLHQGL

T16: Fus1, P11710
T16 sequence (P11710 432-512, looked up): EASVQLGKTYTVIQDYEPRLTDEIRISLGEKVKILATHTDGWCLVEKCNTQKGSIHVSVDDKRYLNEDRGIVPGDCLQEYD

T17: Hse1, P38753
T17 sequence (P38753 208-285, looked up): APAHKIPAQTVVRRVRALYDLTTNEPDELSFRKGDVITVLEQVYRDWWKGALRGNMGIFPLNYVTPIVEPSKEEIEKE

T18: Pin3, Q06449
T18 sequence (Q06449 53-122, looked up): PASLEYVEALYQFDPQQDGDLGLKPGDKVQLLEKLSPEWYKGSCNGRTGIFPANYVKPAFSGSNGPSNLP

T19: Boi2, P39969
T19 sequence (P39969 32-116, looked up): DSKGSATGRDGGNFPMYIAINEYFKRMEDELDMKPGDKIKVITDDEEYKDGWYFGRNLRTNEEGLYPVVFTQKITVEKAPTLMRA

T20: Bzz1-2, P38822
T20 sequence (P38822 568-633, looked up): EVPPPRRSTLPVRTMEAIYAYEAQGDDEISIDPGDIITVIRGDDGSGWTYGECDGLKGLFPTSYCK

T21: Lsb1, P53281
T21 sequence (P53281 45-122, looked up): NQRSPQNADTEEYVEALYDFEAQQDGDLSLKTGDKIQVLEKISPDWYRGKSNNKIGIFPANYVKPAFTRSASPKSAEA

B1: unnamed (peptide)
chain: AGKRRLPLVRFKASD
B2: unnamed (peptide)
chain: QRKSLRRPTLSKPAV
B3: unnamed (peptide)
chain: NRLRKRLNLPSEISI

Target: T1, Sla1-2, P32790
Experiment: SPOT array
Settings: median of control spots 712

| SPOT intensity | Binder |
| --- | --- |
| 3 | B1 |
| 3 | B2 |
| 1 | B3 |

Target: Bem1-2, P29366
Experiment: SPOT array
Settings: median of control spots 4347

Sequence of Bem1-2, P29366 (P29366 139-227): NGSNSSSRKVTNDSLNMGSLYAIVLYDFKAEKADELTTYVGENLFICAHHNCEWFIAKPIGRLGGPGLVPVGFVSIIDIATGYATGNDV

| SPOT intensity | Binder |
| --- | --- |
| 3 | B1 |
| 1 | B2 |
| 3 | B3 |

Target: T2, Bzz1-1, P38822
Experiment: SPOT array
Settings: median of control spots 4446

| SPOT intensity | Binder |
| --- | --- |
| 0 | B1 |
| 4 | B2 |
| 6 | B3 |

Target: GST
Experiment: SPOT array
Settings: median of control spots 978

| SPOT intensity | Binder |
| --- | --- |
| 4 | B1 |
| 6 | B2 |
| 1 | B3 |

Target: T3, Pex13, P80667
Experiment: SPOT array
Settings: median of control spots 1341

| SPOT intensity | Binder |
| --- | --- |
| 4 | B1 |
| 3 | B2 |
| 2 | B3 |

Target: T4, Bbc1, P47068
Experiment: SPOT array
Settings: median of control spots 796

| SPOT intensity | Binder |
| --- | --- |
| 507 | B1 |
| 37 | B2 |
| 74 | B3 |

Target: T5, Myo5, Q04439
Experiment: SPOT array
Settings: median of control spots 471

| SPOT intensity | Binder |
| --- | --- |
| 2 | B1 |
| 3 | B2 |
| 2 | B3 |

Target: T6, Cyk3, Q07533
Experiment: SPOT array
Settings: median of control spots 1451

| SPOT intensity | Binder |
| --- | --- |
| 9 | B1 |
| 4 | B2 |
| 8 | B3 |

Target: Sho1, P40073
Experiment: SPOT array
Settings: median of control spots 1148

Sequence of Sho1, P40073 (P40073 287-367): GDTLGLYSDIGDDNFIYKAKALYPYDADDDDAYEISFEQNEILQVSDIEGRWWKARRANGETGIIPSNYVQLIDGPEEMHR

| SPOT intensity | Binder |
| --- | --- |
| 260 | B1 |
| 116 | B2 |
| 58 | B3 |

Target: T7, Sla1-3, P32790
Experiment: SPOT array
Settings: median of control spots 5475

| SPOT intensity | Binder |
| --- | --- |
| 27 | B1 |
| 22 | B2 |
| 141 | B3 |

Target: T8, Abp1, P15891
Experiment: SPOT array
Settings: median of control spots 935

| SPOT intensity | Binder |
| --- | --- |
| 262 | B1 |
| 78 | B2 |
| 36 | B3 |

Target: T9, Bud14, P27637
Experiment: SPOT array
Settings: median of control spots 956

| SPOT intensity | Binder |
| --- | --- |
| 28 | B1 |
| 2 | B2 |
| 7 | B3 |

Target: Bem1-1, P29366
Experiment: SPOT array
Settings: median of control spots 4282

Sequence of Bem1-1, P29366 (P29366 55-141): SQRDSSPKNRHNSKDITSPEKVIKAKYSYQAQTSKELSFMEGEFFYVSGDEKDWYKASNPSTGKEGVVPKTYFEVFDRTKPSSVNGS

| SPOT intensity | Binder |
| --- | --- |
| 2 | B1 |
| 0 | B2 |
| 0 | B3 |

Target: T10, Nbp2, Q12163
Experiment: SPOT array
Settings: median of control spots 357

| SPOT intensity | Binder |
| --- | --- |
| 125 | B1 |
| 5 | B2 |
| 32 | B3 |

Target: T11, Lsb4, P32793
Experiment: SPOT array
Settings: median of control spots 397

| SPOT intensity | Binder |
| --- | --- |
| 18 | B1 |
| 3 | B2 |
| 0 | B3 |

Target: Myo3, P36006
Experiment: SPOT array
Settings: median of control spots 468

| SPOT intensity | Binder |
| --- | --- |
| 22 | B1 |
| 10 | B2 |
| 4 | B3 |

Target: T12, Lsb3, P43603
Experiment: SPOT array
Settings: median of control spots 406

| SPOT intensity | Binder |
| --- | --- |
| 16 | B1 |
| 3 | B2 |
| 3 | B3 |

Target: Rvs167, P39743
Experiment: SPOT array
Settings: median of control spots 2707

Sequence of Rvs167, P39743 (P39743 419-482): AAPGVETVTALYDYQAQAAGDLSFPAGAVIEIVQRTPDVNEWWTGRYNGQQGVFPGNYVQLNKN

| SPOT intensity | Binder |
| --- | --- |
| 6 | B1 |
| 0 | B2 |
| 0 | B3 |

Target: T13, Boi1, P38041
Experiment: SPOT array
Settings: median of control spots 1162

| SPOT intensity | Binder |
| --- | --- |
| 16 | B1 |
| 2 | B2 |
| 12 | B3 |

Target: T14, Cdc25, P04821
Experiment: SPOT array
Settings: median of control spots 969

| SPOT intensity | Binder |
| --- | --- |
| 55 | B1 |
| 7 | B2 |
| 42 | B3 |

Target: T15, Hof1, Q05080
Experiment: SPOT array
Settings: median of control spots 4086

| SPOT intensity | Binder |
| --- | --- |
| 7 | B1 |
| 4 | B2 |
| 45 | B3 |

Target: T16, Fus1, P11710
Experiment: SPOT array
Settings: median of control spots 1200

| SPOT intensity | Binder |
| --- | --- |
| 23 | B1 |
| 2 | B2 |
| 321 | B3 |

Target: T17, Hse1, P38753
Experiment: SPOT array
Settings: median of control spots 1727

| SPOT intensity | Binder |
| --- | --- |
| 9 | B1 |
| 10 | B2 |
| 99 | B3 |

Target: T18, Pin3, Q06449
Experiment: SPOT array
Settings: median of control spots 2171

| SPOT intensity | Binder |
| --- | --- |
| 8 | B1 |
| 9 | B2 |
| 17 | B3 |

Target: T19, Boi2, P39969
Experiment: SPOT array
Settings: median of control spots 1161

| SPOT intensity | Binder |
| --- | --- |
| 1 | B1 |
| 0 | B2 |
| 3 | B3 |

Target: T20, Bzz1-2, P38822
Experiment: SPOT array
Settings: median of control spots 4538

| SPOT intensity | Binder |
| --- | --- |
| 2 | B1 |
| 16 | B2 |
| 13 | B3 |

Target: T21, Lsb1, P53281
Experiment: SPOT array
Settings: median of control spots 388

| SPOT intensity | Binder |
| --- | --- |
| 18 | B1 |
| 32 | B2 |
| 459 | B3 |
